± gives the half width of the 95% confidence interval.

The record followed here is the supplement of paper PMC12764529.

Data set [1] is described as follows: folding stability dG unfold from trypsin proteolysis; higher = more stable. The essentials: (§1)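 Only designs with AlphaFold2 dimer inter-PAE above 15 were retained; each was a mini-protein under 80 residues with no cysteine, in a PA-tagged cDNA display construct. After digestion with trypsin and chymotrypsin and sequencing, K50 was inferred by Bayesian fitting of counts, and unfolding free energy was derived per protease or combined against a sequence-predicted unfolded-state K50 and a shared folded-state K50.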

Data set [2] can be described thus: folding stability dG unfold from chymotrypsin proteolysis; higher = more stable. The gist of the method:
as §1

Data set [3] can be described thus: folding stability dG unfold (combined trypsin and chymotrypsin); higher = more stable. The gist of the method: as §1

Take “SAGGSAMITLEVEVPPGNAEEAAEAVAEELAEKLGVEVTIEKVEVEYDPVTNLTRVPVEIKINPPLSAGGSA [r15_70_JUSTAS]”: the “folding stability dG unfold” value in data set [1] was found to be 1.18 ± 0.071 kcal/mol; in data set [2], 0.557 ± 0.11 kcal/mol; in data set [3], 0.618 ± 0.24 kcal/mol.

With “SAGGSAMITVDPGEKTVTVEIDLPVYKSYTYPGGETKAYPLELPEEEAKKVADEIAEAFKKKLEGESAGGSA [r15_365_JUSTAS]”, the “folding stability dG unfold” value in data set [1] is -0.499 ± 0.25 kcal/mol; in data set [2], 0.49 ± 0.25 kcal/mol; in data set [3], 0.134 ± 0.24 kcal/mol.

Regarding “SAGGSAMITVKLEGKPVTVEILSREPKGRLVKAQAVVHRPDDGTEKTVSGLLSEEEIEKAIEEALASAGGSA [r15_944_JUSTAS]”, the results for the “folding stability dG unfold” value in data set [1], in data set [2] and in data set [3] were -0.917 ± 0.32 kcal/mol, 0.143 ± 0.11 kcal/mol and -0.15 ± 0.12 kcal/mol, respectively.

As for “SAGGSAMKGLSVERVELDGEEVVRIEIETPAGGSETLELSLRDPEAVEAYLAALKAAGVIAEILPESAGGSA [r15_575_JUSTAS]”, the results for the “folding stability dG unfold” value in data set [1], in data set [2] and in data set [3] were 1.24 ± 0.027 kcal/mol, 0.713 ± 0.11 kcal/mol and 1.11 ± 0.14 kcal/mol, respectively.

Take “SAGGSAMKIEITVEKNENGELTITVKIYDKNGKLVKEIKLKVKTEEEAKKALKELAEKLGIEVEPESAGGSA [r15_242_TrROS_Hall]”: the “folding stability dG unfold” value in data set [1] came to 2.03 ± 0.48 kcal/mol; in data set [2] it was 3.67 ± 0.16 kcal/mol; in data set [3], 3.36 ± 0.44 kcal/mol.

As to “SAGGSAMKKIKIEVEKKGDEYIVRIKIKNPDGKIEEIEIKLKDEEEAKKLAEELLKEGKIDEIELESAGGSA [r15_575_TrROS_Hall]”, the “folding stability dG unfold” value is 2.7 ± 0.18 kcal/mol in data set [1], 2.29 ± 0.077 kcal/mol in data set [2] and 2.57 ± 0.18 kcal/mol in data set [3].

“SAGGSAMKKTITVTLSYPETGETRTVTVELTDIPESDPEKWKALAEEVAEALAKERGAEVLGIEISSAGGSA [r15_1013_JUSTAS]”: the “folding stability dG unfold” value in data set [1] was determined as 4.9 ± 0.14 kcal/mol; in data set [2], 4.6 ± 0.066 kcal/mol; in data set [3] it was 4.72 ± 0.065 kcal/mol.

Take “SAGGSAMKKTTATFYVRPDSLTVEIELGEKTKKLTFDPSVSIEEVKASLPDYVDEVKVKPASPSLSSAGGSA [r15_1058_JUSTAS]”: the “folding stability dG unfold” value is -0.43 ± 0.24 kcal/mol in data set [1], 0.529 ± 0.27 kcal/mol in data set [2] and 0.242 ± 0.14 kcal/mol in data set [3].

For the sequence “SAGGSAMKKVTVTVKFPDGTTYTFDMDTESEEEFEKKVREEALKRFPDIPLEDVEVTEVVVTPELLSAGGSA [r15_220_JUSTAS]”, the “folding stability dG unfold” value in data set [1] worked out at 2.3 ± 0.16 kcal/mol; in data set [2], 2.38 ± 0.039 kcal/mol; in data set [3], 2.33 ± 0.12 kcal/mol.

Turning to “SAGGSAMKLVLTFPEGLPEIPLEELAKAIEDALPEDFEVKEIKVEPLPDGGLRLTFIVNDEEVEILSAGGSA [r15_451_TrMRF]”, the “folding stability dG unfold” value in data set [1] came to 2.52 ± 0.062 kcal/mol; in data set [2], 2.52 ± 0.017 kcal/mol; in data set [3], 2.54 ± 0.048 kcal/mol.

“SAGGSAMKPGEPVEFNIMIKIRDPNGKPVGEIDIKVEYPKGQSESQMFDRARNEINNLAPEGHLEISAGGSA [r15_310_TrROS]”: the “folding stability dG unfold” value in data set [1] amounted to 0.0892 ± 0.087 kcal/mol; in data set [2], 0.486 ± 0.21 kcal/mol; in data set [3], 0.396 ± 0.14 kcal/mol.

Consider “SAGGSAMKVIRIRPDDPRVKELLKKLEDAGYEVRYDEETGELYVTLPDGKVLKFKSLEELKKAGFESAGGSA [r15_94_TrROS_Hall]”, for which the “folding stability dG unfold” value was found to be 1.63 ± 0.029 kcal/mol in data set [1], 2.19 ± 0.1 kcal/mol in data set [2] and 1.93 ± 0.088 kcal/mol in data set [3].

Take “SAGGSAMKVVFYGDEASQKEIAEKAKKEGIEYEAYPGSREEILAYVKENYPDVKMIVYPEGKEYLISAGGSA [r15_712_JUSTAS]”: the “folding stability dG unfold” value came to 0.0902 ± 0.072 kcal/mol in data set [1], 0.094 ± 0.18 kcal/mol in data set [2] and 0.179 ± 0.073 kcal/mol in data set [3].

With “SAGGSAMPADEVVEVREITDPATGKKVTVVRNKETGRYFVRVENPDGETEVFEVPGMTAEELEELASAGGSA [r15_295_TrROS_Hall]”, the results for the “folding stability dG unfold” value in data set [1], in data set [2] and in data set [3] were 2.33 ± 0.056 kcal/mol, 2.6 ± 0.051 kcal/mol and 2.51 ± 0.1 kcal/mol, respectively.

On to “SAGGSAMPGMTLQELLDAIRALLPPGARARIYVRNPDGEVIELTDLDDITVEDLENAEIRIEIEPVSAGGSA [r15_144_TrROS_Hall]”, for which the “folding stability dG unfold” value in data set [1] was found to be 3.7 ± 0.1 kcal/mol; in data set [2] it was 4.01 ± 0.052 kcal/mol; in data set [3], 3.88 ± 0.076 kcal/mol.

With “SAGGSAMPIELDLVIEIPIDAHPDQTVEDLVEEIAERIRRLLPPDTVVELRVHLHPELGVALADVSSAGGSA [r15_739_TrMRF]”, the “folding stability dG unfold” value stood at 1.56 ± 0.039 kcal/mol in data set [1], 0.117 ± 0.087 kcal/mol in data set [2] and 0.988 ± 0.081 kcal/mol in data set [3].

For “SAGGSAMPKFYLDENGNPVYELPEEPTINTPLKIGIFDEENNPAIEIEIPGSTPLEEIIQKIKDAASAGGSA [r15_309_TrMRF]”, the figures for the “folding stability dG unfold” value in data set [1], in data set [2] and in data set [3] were 0.674 ± 0.065 kcal/mol, 0.483 ± 0.14 kcal/mol and 0.677 ± 0.2 kcal/mol, respectively.

For “SAGGSAMPPGEPIGSFSFPFNNGGNLMISAYPGGEIKISWWGPDGRPHEHEFPVKVKPPPPEDEGKSAGGSA [r15_478_TrROS]”, the “folding stability dG unfold” value in data set [1] turned out to be 1.33 ± 0.053 kcal/mol; in data set [2], 1.64 ± 0.07 kcal/mol; in data set [3], 1.6 ± 0.19 kcal/mol.
